Columns and labels:
Test in all cases: SPR
[1] = molecular target: F-actin from rabbit back muscle (rabbit, UniProt P68135 1-377)
[2] = molecular target: F-actin-Tm composite thin filament (rabbit, UniProt P68135 1-377; P58772 1-284)
[3] = molecular target: Rabbit cardiac α-tropomyosin (rabbit, UniProt P58772 1-284)

SKTRGKAKVTGRWK (peptide, UniProt P45379-6 275-288, looked up) was tested, and the “Maximum Signal (Δpm)” value [1] was 397 Δpm, the koff [1] was 0.0278 s⁻¹ and the kon [1] was 4150 M⁻¹ s⁻¹. For the same binder, the “Maximum Signal (Δpm)” value [2] was 434 Δpm, the koff [2] was 0.0362 s⁻¹ and the kon [2] was 5270 M⁻¹ s⁻¹. For the same binder, the “Maximum Signal (Δpm)” value [3] was 420 Δpm, the koff [3] was 0.0374 s⁻¹ and the kon [3] was 5910 M⁻¹ s⁻¹.

With SKTRGNAKVTGRWK (peptide, UniProt P45379-6 275-288, looked up) [Human cTnT-C14 peptide containing HCM-linked mutation K280N] the “Maximum Signal (Δpm)” value [1] was 112 Δpm, the koff [1] was 0.0415 s⁻¹ and the kon [1] was 3810 M⁻¹ s⁻¹. The “Maximum Signal (Δpm)” value [2] was 109 Δpm, the koff [2] was 0.041 s⁻¹ and the kon [2] was 6450 M⁻¹ s⁻¹. The “Maximum Signal (Δpm)” value [3] was 108 Δpm, the koff [3] was 0.0351 s⁻¹ and the kon [3] was 6600 M⁻¹ s⁻¹.

For SKTCGKAKVTGRWK (peptide, UniProt P45379-6 275-288, looked up) [Human cTnT-C14 peptide containing HCM-linked mutation R278C], the “Maximum Signal (Δpm)” value [1] was 144 Δpm, the koff [1] was 0.0169 s⁻¹ and the kon [1] was 1450 M⁻¹ s⁻¹. For the same binder, the “Maximum Signal (Δpm)” value [2] was 134 Δpm, the koff [2] was 0.02 s⁻¹ and the kon [2] was 3930 M⁻¹ s⁻¹. For the same binder, the “Maximum Signal (Δpm)” value [3] was 95.4 Δpm, the koff [3] was 0.0219 s⁻¹ and the kon [3] was 2500 M⁻¹ s⁻¹.

With SKTRGKAKVTGCWK (peptide, UniProt P45379-6 275-288, looked up) [Human cTnT-C14 peptide containing HCM-linked mutation R286C] the “Maximum Signal (Δpm)” value [1] was 112 Δpm, the koff [1] was 0.0172 s⁻¹ and the kon [1] was 1570 M⁻¹ s⁻¹. For the same binder, the “Maximum Signal (Δpm)” value [2] was 126 Δpm, the koff [2] was 0.0256 s⁻¹ and the kon [2] was 3850 M⁻¹ s⁻¹. For the same binder, the “Maximum Signal (Δpm)” value [3] was 114 Δpm, the koff [3] was 0.0166 s⁻¹ and the kon [3] was 3110 M⁻¹ s⁻¹.

— publication PMC13334471 (Journal of molecular and cellular cardiology, 2026)
